Data set [1] deals with the molecule itself. The experiment in a line: native MS; native ion mobility MS; 5 uM enzyme buffer exchanged into 200 mM ammonium acetate, pH 7.5; nanoESI under gentle conditions (Waters Synapt G2-Si); collision-induced unfolding of the 20+ dimer ion at 4 to 110 V.
Substrate in the data set “purified protein”: C[S+](CC[C@H](N)C(=O)O)C[C@H]1O[C@@H](n2cnc3c(N)ncnc32)[C@H](O)[C@@H]1O
The experiment in a line: purified protein. The note with it: 60:40 PE 18:1/18:1:DPPG 100 nm unilamellar liposomes 1 mg/ml, HEPES pH 7.5, 37 °C.

B1: Pseudomonas aeruginosa PAO1 cyclopropane fatty acid synthase (PA-CFAS) (enzyme, UniProt Q9HT28 1-394, looked up)
chain: MIAQLPSELLSLQLPLRIRIGDAQAFDLGPDPQVTMVIRDPSLLTEITHPSLDALGKAYVEKRLDIEGPISQVIGIGDALSEALGEPDGGAPPVRESHDKDTDAEAIHYHYDLSNDFYQLWLDPEMVYSCAYFETGKEDLATAQLAKLRHLCRKLRLQPGEKLLDVGCGWGGLARLAAREFGVEVTGITLSKEQLALGRERVKAEGLEDRVTLKLLDYRDLPRDGRFDKVVSVGMFEHVGHANLGLYFQQLYEAVRPGGLVMNHGITSRYTDGRPVGKGAGDFIDRYVFPHGELPHLSLAVARMSEAGLEVVDVESLRLHYARTLDFWSANLEARLKEAARLVPEETLRIWRLYLAGCAYGFKRGWINLHQILAIRPHEDGSHELPWSRRDLYA
notes: Cyclopropane fatty acid synthase, gene PA5546, P. aeruginosa PAO1, amplified from the PAO1 genome and cloned into pET16b; monomer with His6 tag MWcalc = MWobs = 46,486 Da; The native-MS dimer mass (92,972 Da) is twice the tagged monomer mass, so the tag was present in the assay; also called PA5546; Pseudomonas CFAS enzyme
As for B1, the stoichiometry N (usually the number of molecules, sites or subunits per partner or assembly) in data set [1] was 2.

B2: EC-CFAS (Escherichia coli K-12) (protein)
chain: SSSCIEEVSVPDDNWYRIANELLSRAGIAINGSAPADIRVKNPDFFKRVLQEGSLGLGESYMDGWWECDRLDMFFSKVLRAGLENQLPHHFKDTLRIAGARLFNLQSKKRAWIVGKEHYDLGNDLFSRMLDPFMQYSCAYWKDADNLESAQQAKLKMICEKLQLKPGMRVLDIGCGWGGLAHYMASNYDVSVVGVTISAEQQKMAQERCEGLDVTILLQDYRDLNDQFDRIVSVGMFEHVGPKNYDTYFAVVDRNLKPEGIFLLHTIGSKKTDLNVDPWINKYIFPNGCLPSVRQIAQSSEPHFVMEDWHNFGADYDTTLMAWYERFLAAWPEIADNYSERFKRMFTYYLNACAGAFRARDIQLWQVVFSRGVENGLRVAR
With B2, in “purified protein”, the Km (in general, the concentration of substrate that gives half-maximal velocity) is 68 µM; the kcat (as a rule, the number of substrate molecules converted per active site and unit of time at saturation) is 0.217 s⁻¹.

Values taken from paper PMC11387697, “Defining the functional properties of cyclopropane fatty acid synthase from Pseudomonas aeruginosa PAO1” (The Journal of Biological Chemistry, 2024).
